The values below are quoted from earlier work in publication PMC5393932.

As a reminder, the Kd is the constant that tells how readily two partners part at equilibrium.

This data set concerns the target P-selectin (Homo sapiens) (UniProt P16109).
Chain of UniProt P16109 (P16109 42-771): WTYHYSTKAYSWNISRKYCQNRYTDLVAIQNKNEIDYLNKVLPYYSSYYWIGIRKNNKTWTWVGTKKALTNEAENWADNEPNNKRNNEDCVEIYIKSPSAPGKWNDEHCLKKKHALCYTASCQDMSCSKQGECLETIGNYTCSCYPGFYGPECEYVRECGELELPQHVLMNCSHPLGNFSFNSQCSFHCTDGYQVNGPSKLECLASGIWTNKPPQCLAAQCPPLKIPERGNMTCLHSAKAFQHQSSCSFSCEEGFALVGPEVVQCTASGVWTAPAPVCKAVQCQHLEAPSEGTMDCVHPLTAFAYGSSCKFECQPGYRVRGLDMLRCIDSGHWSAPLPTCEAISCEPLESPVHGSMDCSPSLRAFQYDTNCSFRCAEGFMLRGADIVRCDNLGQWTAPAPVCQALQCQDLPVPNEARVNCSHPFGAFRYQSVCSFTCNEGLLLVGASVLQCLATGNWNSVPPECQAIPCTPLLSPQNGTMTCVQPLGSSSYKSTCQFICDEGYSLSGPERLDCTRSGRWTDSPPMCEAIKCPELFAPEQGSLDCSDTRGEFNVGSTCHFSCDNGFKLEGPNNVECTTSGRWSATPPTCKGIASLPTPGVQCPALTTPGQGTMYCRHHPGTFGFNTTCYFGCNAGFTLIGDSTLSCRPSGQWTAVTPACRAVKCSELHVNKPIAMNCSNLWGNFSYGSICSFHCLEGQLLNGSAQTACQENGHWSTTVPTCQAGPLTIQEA

PSGL-1 (from UniProt Q14242): the Kd is 0.07 µM.
